# Reference: article PMC7272653, “Human aminolevulinate synthase structure reveals a eukaryotic-specific autoinhibitory loop regulating substrate binding and product release” (Nature Communications, 2020)
# Biological target: the molecule itself
# Experiment: SEC + other: SAXS; in solution; SAXS coupled to a Shodex KW403-4F size exclusion column; 300 mM NaCl, 25 mM Hepes 7.5, 1 mM TCEP, 2% glycerol, 1% sucrose, 20 °C
row,Protein,stoichiometry N
1,"hsALAS2_(ΔN142ΔC545) (catalytic domain alone, aa 143–545) (domain or fragment, human, UniProt P22557 143-545, looked up, human ALAS2, catalytic domain alone, aa 143–545 (Ct-extension omitted); also called hsALAS2_(ΔN142ΔC545) WT; source: constructs cloned into pFB-LIC-Bse (Sf9) and pNIC28-Bsa4; purified (Ni-NTA, Superdex 200)) FSYDQFFRDKIMEKKQDHTYRVFKTVNRWADAYPFAQHFSEASVASKDVSVWCSNDYLGMSRHPQVLQATQETLQRHGAGAGGTRNISGTSKFHVELEQELAELHQKDSALLFSSCFVANDSTLFTLAKILPGCEIYSDAGNHASMIQGIRNSGAAKFVFRHNDPDHLKKLLEKSNPKIPKIVAFETVHSMDGAICPLEELCDVSHQYGALTFVDEVHAVGLYGSRGAGIGERDGIMHKIDIISGTLGKAFGCVGGYIASTRDLVDMVRSYAAGFIFTTSLPPMVLSGALESVRLLKGEEGQALRRAHQRNVKHMRQLLMDRGLPVIPCPSHIIPIRVGNAALNSKLCDLLLSKHGIYVQAINYPTVPRGEELLRLAPSPHHSPQMMEDFVEKLLLAWTAVGL",2
2,"hsALAS2_(ΔN142) (human erythroid-specific 5′-aminolevulinate synthase, aa 143–587) (enzyme, UniProt P22557 143-587, looked up, human ALAS2 (5′-aminolevulinate synthase, erythroid-specific), aa 143–587: catalytic core and Ct-extension; Before crystallisation it was made non-covalent with hydroxylamine; The His6 tag is TEV-cleavable and was removed 'where applicable'; also called hsALAS2_(ΔN142) WT; source: baculovirus-infected Sf9 insect cells, purified (Ni-NTA, Superdex 200)) FSYDQFFRDKIMEKKQDHTYRVFKTVNRWADAYPFAQHFSEASVASKDVSVWCSNDYLGMSRHPQVLQATQETLQRHGAGAGGTRNISGTSKFHVELEQELAELHQKDSALLFSSCFVANDSTLFTLAKILPGCEIYSDAGNHASMIQGIRNSGAAKFVFRHNDPDHLKKLLEKSNPKIPKIVAFETVHSMDGAICPLEELCDVSHQYGALTFVDEVHAVGLYGSRGAGIGERDGIMHKIDIISGTLGKAFGCVGGYIASTRDLVDMVRSYAAGFIFTTSLPPMVLSGALESVRLLKGEEGQALRRAHQRNVKHMRQLLMDRGLPVIPCPSHIIPIRVGNAALNSKLCDLLLSKHGIYVQAINYPTVPRGEELLRLAPSPHHSPQMMEDFVEKLLLAWTAVGLPLQDVSVAACNFCRRPVHFELMSEWERSYFGNMGPQYVTTYA",2
